Patent publication US20100190693A1

Key:
[1] = target: CBP (endogenous, HIT cells) (hamster); experiment: cell-based or functional assay
KIX-VP16 = KIX-VP16 (UniProt Q92793); experiment: cell-based or functional assay
Sequence of KIX-VP16 (Q92793 587-666): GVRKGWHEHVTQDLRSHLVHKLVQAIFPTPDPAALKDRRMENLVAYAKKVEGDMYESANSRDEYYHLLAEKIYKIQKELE

Row | Substance | GAL4 luciferase reporter in HIT cells, response to cAMP [1] [fold] | GAL4 luciferase reporter, mammalian two-hybrid assay in HIT cells, forskolin (KIX-VP16) [fold]
1 | GAL4-CREB, wild-type (from UniProt P04386 1-147; P16220 1-341) | 10 | –
2 | GAL4-CREB M1 (Ser133Ala) (from UniProt P04386 1-147; P16220 1-341) | 2.5 | –
3 | GAL4-KID (from UniProt P16220 87-146) | – | 20
